Target: the molecule itself
Assay: gel filtration on Sephacryl 300 HR at pH 5.3 (self-association, homodimer)

B1: bovine βB2 crystallin (other)
chain: ASDHQTQAGKPQPLNPKIIIFEQENFQGHSHELNGPCPNLKETGVEKAGSVLVQAGPWVGYEQANCKGEQFVFEKGEYPRWDSWTSSRRTDSLSSLRPIKVDSQEHKITLYENPNFTGKKMEVIDDDVPSFHAHGYQEKVSSVRVQSGTWVGYQYPGYRGLQYLLEKGDYKDSGDFGAPQPQVQSVRRIRDMQWHQRGAFHPSS
modifications: N-terminus acetylated (as extracted from bovine eye)
notes: Native intact protein purified from bovine eye lens; Wound Heal 1 = gel filtration at pH 5.3; Wound Heal 2 = 100 kDa retentate plus gel filtration, and also holds some βA3 crystallin; also called Crystallin βB2; Wound Heal 1
binding result: binds
